Consider eleven proteins from patent US20190382475.

What all share (assay): LC-UV-ESI-MS of purified Fab after co-expression of two heavy and two light chains in HEK293T (chain competition); competing chains not named
The target in data set [1] is anti c-Kit Fab heavy chain Q39K/K147D/S165R.
In data set [2] the target is anti c-Kit Fab heavy chain Q39/K147/S165 (wild type).
The target of data set [3] is anti c-Kit Fab heavy chain Q39/K147/S165D.
Data set [4] has as its target anti c-Kit Fab heavy chain Q39K/K147/S165R.
In data set [5] the target is anti c-Kit Fab heavy chain Q39D/K147/S165.
Data set [6] addresses anti c-Kit Fab heavy chain Q39D/K147/S165D.
The target of data set [7] is anti c-Kit Fab heavy chain Q39K/K147D/S165.
Data set [8] concerns the target anti c-Kit Fab heavy chain Q39/K147D/S165R.
Data set [9] concerns the target anti c-Kit Fab heavy chain Q39/K147D/S165.
Data set [10] has as its target anti c-Kit Fab heavy chain Q39/K147/S165R.
In data set [11] the target is anti c-Kit Fab heavy chain Q39K/K147/S165.

B1: anti c-Kit Fab light chain Q38D/Q124K/K169D (protein)
chain: DIQMTQSPSSLSASVGDRVTITCRASQSISSYLNWYQDKPGKAPKLLIYYTSRLQSGVPSRFSGSGSGTDFTLTISSLQPEDFATYYCQQGRRLWSFGGGTKVEIKRTVAAPSVFIFPPSDEKLKSGTASVVCLLNNFYPREAKVQWKVDNALQSGNSQESVTEQDSDDSTYSLSSTLTLSKADYEKHKVYACEVTHQGLSSPVTKSFNRGEC
On to B1, for which, in data set [1], the Correct pairing (%) was determined as 100%.

B2: anti c-Kit Fab light chain Q38/Q124D/K169 (protein)
chain: DIQMTQSPSSLSASVGDRVTITCRASQSISSYLNWYQQKPGKAPKLLIYYTSRLQSGVPSRFSGSGSGTDFTLTISSLQPEDFATYYCQQGRRLWSFGGGTKVEIKRTVAAPSVFIFPPSDEDLKSGTASVVCLLNNFYPREAKVQWKVDNALQSGNSQESVTEQDSKDSTYSLSSTLTLSKADYEKHKVYACEVTHQGLSSPVTKSFNRGEC
As for B2, the Correct pairing (%) in data set [2] is 91%; in data set [3] it was 88%.

B3: anti c-Kit Fab light chain Q38D/Q124/K169D (protein)
chain: DIQMTQSPSSLSASVGDRVTITCRASQSISSYLNWYQDKPGKAPKLLIYYTSRLQSGVPSRFSGSGSGTDFTLTISSLQPEDFATYYCQQGRRLWSFGGGTKVEIKRTVAAPSVFIFPPSDEQLKSGTASVVCLLNNFYPREAKVQWKVDNALQSGNSQESVTEQDSDDSTYSLSSTLTLSKADYEKHKVYACEVTHQGLSSPVTKSFNRGEC
B3 came in with a Correct pairing (%) in data set [4] of 75%.

B4: anti c-Kit Fab light chain Q38K/Q124D/K169 (protein)
chain: DIQMTQSPSSLSASVGDRVTITCRASQSISSYLNWYQKKPGKAPKLLIYYTSRLQSGVPSRFSGSGSGTDFTLTISSLQPEDFATYYCQQGRRLWSFGGGTKVEIKRTVAAPSVFIFPPSDEDLKSGTASVVCLLNNFYPREAKVQWKVDNALQSGNSQESVTEQDSKDSTYSLSSTLTLSKADYEKHKVYACEVTHQGLSSPVTKSFNRGEC
Turning to B4, the values for the Correct pairing (%) in data set [5] and in data set [6] were 93% and 100%, respectively.

B5: anti c-Kit Fab light chain Q38/Q124/K169 (wild type) (protein)
chain: DIQMTQSPSSLSASVGDRVTITCRASQSISSYLNWYQQKPGKAPKLLIYYTSRLQSGVPSRFSGSGSGTDFTLTISSLQPEDFATYYCQQGRRLWSFGGGTKVEIKRTVAAPSVFIFPPSDEQLKSGTASVVCLLNNFYPREAKVQWKVDNALQSGNSQESVTEQDSKDSTYSLSSTLTLSKADYEKHKVYACEVTHQGLSSPVTKSFNRGEC
Turning to B5, the Correct pairing (%) in data set [2] came to 63%; in [3], 87%.

B6: anti c-Kit Fab light chain Q38D/Q124K/K169 (protein)
chain: DIQMTQSPSSLSASVGDRVTITCRASQSISSYLNWYQDKPGKAPKLLIYYTSRLQSGVPSRFSGSGSGTDFTLTISSLQPEDFATYYCQQGRRLWSFGGGTKVEIKRTVAAPSVFIFPPSDEKLKSGTASVVCLLNNFYPREAKVQWKVDNALQSGNSQESVTEQDSKDSTYSLSSTLTLSKADYEKHKVYACEVTHQGLSSPVTKSFNRGEC
Take B6: the Correct pairing (%) in data set [7] was 95%.

B7: anti c-Kit Fab light chain Q38K/Q124/K169 (protein)
chain: DIQMTQSPSSLSASVGDRVTITCRASQSISSYLNWYQKKPGKAPKLLIYYTSRLQSGVPSRFSGSGSGTDFTLTISSLQPEDFATYYCQQGRRLWSFGGGTKVEIKRTVAAPSVFIFPPSDEQLKSGTASVVCLLNNFYPREAKVQWKVDNALQSGNSQESVTEQDSKDSTYSLSSTLTLSKADYEKHKVYACEVTHQGLSSPVTKSFNRGEC
As for B7, the Correct pairing (%) in [5] and in [6] was 95% each time.

B8: anti c-Kit Fab light chain Q38/Q124K/K169D (protein)
chain: DIQMTQSPSSLSASVGDRVTITCRASQSISSYLNWYQQKPGKAPKLLIYYTSRLQSGVPSRFSGSGSGTDFTLTISSLQPEDFATYYCQQGRRLWSFGGGTKVEIKRTVAAPSVFIFPPSDEKLKSGTASVVCLLNNFYPREAKVQWKVDNALQSGNSQESVTEQDSDDSTYSLSSTLTLSKADYEKHKVYACEVTHQGLSSPVTKSFNRGEC
On to B8, for which the Correct pairing (%) in data set [8] is 90%.

B9: anti c-Kit Fab light chain Q38/Q124K/K169 (protein)
chain: DIQMTQSPSSLSASVGDRVTITCRASQSISSYLNWYQQKPGKAPKLLIYYTSRLQSGVPSRFSGSGSGTDFTLTISSLQPEDFATYYCQQGRRLWSFGGGTKVEIKRTVAAPSVFIFPPSDEKLKSGTASVVCLLNNFYPREAKVQWKVDNALQSGNSQESVTEQDSKDSTYSLSSTLTLSKADYEKHKVYACEVTHQGLSSPVTKSFNRGEC
In [9], B9 came in with a Correct pairing (%) of 91%.

B10: anti c-Kit Fab light chain Q38/Q124/K169D (protein)
chain: DIQMTQSPSSLSASVGDRVTITCRASQSISSYLNWYQQKPGKAPKLLIYYTSRLQSGVPSRFSGSGSGTDFTLTISSLQPEDFATYYCQQGRRLWSFGGGTKVEIKRTVAAPSVFIFPPSDEQLKSGTASVVCLLNNFYPREAKVQWKVDNALQSGNSQESVTEQDSDDSTYSLSSTLTLSKADYEKHKVYACEVTHQGLSSPVTKSFNRGEC
As to B10, the Correct pairing (%) in data set [10] amounted to 68%.

B11: anti c-Kit Fab light chain Q38D/Q124/K169 (protein)
chain: DIQMTQSPSSLSASVGDRVTITCRASQSISSYLNWYQDKPGKAPKLLIYYTSRLQSGVPSRFSGSGSGTDFTLTISSLQPEDFATYYCQQGRRLWSFGGGTKVEIKRTVAAPSVFIFPPSDEQLKSGTASVVCLLNNFYPREAKVQWKVDNALQSGNSQESVTEQDSKDSTYSLSSTLTLSKADYEKHKVYACEVTHQGLSSPVTKSFNRGEC
Take B11: the Correct pairing (%) in data set [11] turned out to be 74%.
